Data set [1] deals with T1, AIR-Dnmt3a2 (autoinhibition removed) (murine, UniProt O88508-2 1-689, Y303A;Y305A). The data set is described as follows: EMSA; 1 uM protein, 100 uM AdoHcy; 20 mM HEPES-NaOH pH 7.5, 100 mM KCl, 1 mM EDTA, 1 mM DTT, 100 uM AdoHcy, 25 C (EMSA: + 6% glycerol, 30 min, 60 nM DNA, gel at 4 C; FP: 10 nM DNA).
Data set [2] deals with Dnmt3a-CD (murine, UniProt O88508 608-908). The data set is described as above. The settings on record: protein: recombinant; tags: N-terminal 6xHis; chain copies: 2; label: fluorophore (FAM or TAMRA); no G4.
Data set [3] has as its target M.SssI (prokaryotic (species ), UniProt P15840 1-386). The data set is described as follows: EMSA; 100 uM AdoHcy; 20 mM HEPES-NaOH pH 7.5, 100 mM KCl, 1 mM EDTA, 1 mM DTT, 100 uM AdoHcy, 25 C (EMSA: + 6% glycerol, 30 min, 60 nM DNA, gel at 4 C; FP: 10 nM DNA). The settings on record: protein: recombinant; label: FAM; 30 bp duplex. For orientation: Mobility shift assays separate free from complexed probe on a gel.

Data set [4] has as its target T1, AIR-Dnmt3a2 (autoinhibition removed). Nature of the data set: EMSA; 1 uM protein, 100 uM AdoHcy; no difference from 76Tf/95Bf-G4; 20 mM HEPES-NaOH pH 7.5, 100 mM KCl, 1 mM EDTA, 1 mM DTT, 100 uM AdoHcy, 25 C (EMSA: + 6% glycerol, 30 min, 60 nM DNA, gel at 4 C; FP: 10 nM DNA).

Chain of M.SssI (P15840 whole entry): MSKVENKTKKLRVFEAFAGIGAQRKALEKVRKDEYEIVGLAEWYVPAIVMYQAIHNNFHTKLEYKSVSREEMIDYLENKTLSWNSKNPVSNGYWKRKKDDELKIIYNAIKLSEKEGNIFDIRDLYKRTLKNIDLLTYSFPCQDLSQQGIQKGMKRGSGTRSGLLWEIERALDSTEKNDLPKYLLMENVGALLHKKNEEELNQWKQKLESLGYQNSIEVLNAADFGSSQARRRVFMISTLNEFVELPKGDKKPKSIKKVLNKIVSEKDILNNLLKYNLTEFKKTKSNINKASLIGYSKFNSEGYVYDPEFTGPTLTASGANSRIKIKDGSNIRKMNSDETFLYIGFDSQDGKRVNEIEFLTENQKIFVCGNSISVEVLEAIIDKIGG

As for AGGGAGTGAGTGAGTGAGTATA (ssDNA) [22(GAGT)4f], the binding signal in data set [1] and in data set [2] was roughly 4 fold weaker than 19G4f throughout.

B1: 30Tf/30Bf (dsDNA)
DNA 1: CTGAATACTACTTGCGCTCTCTAACCTGAT
DNA 2: ATCAGGTTAGAGAGCGCAAGTAGTATTCAG
With B1, in data set [3], the binding result is on record as “binds”.

B2: 76Tf/76Bf (dsDNA)
DNA 1: TCCTTTCGCGCTTGGATCCTATGAGCGTTACTCGAGCATATGGCTCAGCTGCCAGGCACCAGTGTCAGCGTCCTAT
DNA 2: ATAGGACGCTGACACTGGTGCTTGGCAGCTGAGCCATATGCTCGAGTAACGCTCATAGGATCCAAGCGCGAAAGGA
As to B2, the binding result in data set [4] is recorded as “binds”.

The values are drawn from paper PMC9499004, “Impact of G-Quadruplex Structures on Methylation of Model Substrates by DNA Methyltransferase Dnmt3a”.
